From patent US20240150440A1 (LUMEN BIOSCIENCE, published 2024)

Legend:
[1] = biological target: T1, recombinant SARS-CoV-2 RBD with C-terminal AviTag (SARS-CoV-2, UniProt P0DTC2 319-541); test: BLI, biotinylated RBD on streptavidin biosensors; OR: over-range [Cont. 2]
[2] = biological target: T2, SARS-CoV-2 spike protein on pseudotyped lentivirus (Wuhan Reference Pseudovirus) (SARS-CoV-2, UniProt P0DTC2 14-1273); test: cell-based or functional assay
[3] = biological target: T2, SARS-CoV-2 spike protein on pseudotyped …; test: cell-based or functional assay; remark: listed apart in the source
[4] = biological target: SARS-CoV-2 Delta Variant spike protein on pseudotyped lentivirus (SARS-CoV-2 Delta variant); test: cell-based or functional assay
[5] = biological target: T3, SARS-CoV-2 Gamma Variant RBD (SARS-CoV-2 Gamma variant); test: ELISA, RBD coated
T3 construct: domain: RBD; coated on ELISA plates

[6] = biological target: T4, SARS-CoV-2 Beta Variant RBD (SARS-CoV-2 Beta variant); test: ELISA, RBD coated
T4 construct: domain: RBD; coated on ELISA plates

[7] = biological target: T5, SARS-CoV-2 Delta Variant RBD (SARS-CoV-2 Delta variant); test: ELISA, RBD coated
T5 construct: domain: RBD; coated on ELISA plates

[8] = biological target: T6, SARS-CoV-2 Alpha Variant RBD (SARS-CoV-2 Alpha variant); test: ELISA, RBD coated
T6 construct: domain: RBD; coated on ELISA plates

[9] = biological target: T2, SARS-CoV-2 spike protein on pseudotyped …; test: cell-based or functional assay; remark: listed apart in the source
[10] = biological target: T1, recombinant SARS-CoV-2 RBD with …; test: BLI, biotinylated RBD on streptavidin biosensors [Cont. 2]
[11] = biological target: T1, recombinant SARS-CoV-2 RBD with …; test: BLI, biotinylated RBD on streptavidin biosensors; OR: over-range [Cont. 4]
[12] = biological target: T1, recombinant SARS-CoV-2 RBD with …; test: ELISA, competition with coated ACE2-Fc for RBD [Cont. 4]
[13] = biological target: T1, recombinant SARS-CoV-2 RBD with …; test: BLI, biotinylated RBD on streptavidin biosensors [Cont. 4]
[14] = biological target: T2, SARS-CoV-2 spike protein on pseudotyped …; test: cell-based or functional assay; remark: listed apart in the source
[15] = biological target: T1, recombinant SARS-CoV-2 RBD with …; test: ELISA, competition with coated ACE2-Fc for RBD [Cont. 1]
[16] = biological target: T1, recombinant SARS-CoV-2 RBD with …; test: BLI, biotinylated RBD on streptavidin biosensors; OR: over-range [Cont. 1]
[17] = biological target: T2, SARS-CoV-2 spike protein on pseudotyped …; test: cell-based or functional assay; remark: listed apart in the source
[18] = biological target: T2, SARS-CoV-2 spike protein on pseudotyped …; test: cell-based or functional assay; remark: listed apart in the source

B1: PP815 MBP-R5A-A1-H6 (VHH)
VHH: QVQLVESGGGLVQPGGSLRLSCAASGAELSYTAIHWFRQAPGKQREFVATINSGGSSYYADSVKGRFTISRDNAKNTVYLQMNSLKPEDTAVYYCTALLDSTYDYWGQGTQVTVSS
notes: Form: Monomer
Kd [1]: ~2700 nM
infectivity % under 10 ug/mL VHH treatment [2]: 84.4%

B2: PP817 MBP-R5A-B3-H6 (VHH)
VHH: QVQLVESGGGLVQPGGSLRLSCAASGQLDRSNAMAWFRQAPGKGREWVASITSGASTQYADSVKGRFTISRDNAKNTVYLQMNSLKPEDTAVYYCAADRYRAIQRTQYSWGQGTQVTVSS
notes: Form: Monomer
Kd [1]: ~5170 nM
infectivity % under 10 ug/mL VHH treatment [2]: 80%

B3: PP1148 MBP-5HVZ-PAPA-R5a-C5-H6 (VHH)
VHH: QVQLVESGGGLVQPGGSLRLSCAASGDIFSINALHWFRQAPGKQREEVAAITSGGSTGYADSVKGRFTISRDNAKNTVYLQMNSLKPEDTAVYYCAAQQARGGLDSDYWGQGTQVTVSS
notes: Form: Dimer
Pseudovirus neutralization IC50 [3]: 15.7 nM
Pseudovirus neutralization IC50 [4]: 0.53 nM
EC50 [5]: 9.06 nM
EC50 [6]: 30.5 nM
EC50 [7]: 0.22 nM
EC50 [8]: 0.33 nM
infectivity % under 10 ug/mL VHH treatment [2]: 5.95%
Pseudovirus inhibition IC50 [Cont. 2] [9]: 4.7 nM

B4: PP1149 MBP-5HVZ-PAPA-R5a-E5-H6 (VHH)
VHH: QVQLVESGGGLVQPGGSLRLSCAASGYDFDILRMAWFRQAPGKEREMVAAITSAESVNYEDSVKGRFTISRDNAKNTVYLQMNSLKPEDTAVYYCATYDYTDDYGYASWGQGTQVTVSS
notes: Form: Dimer
Pseudovirus neutralization IC50 [3]: 37.3 nM
EC50 [5]: 134 nM
EC50 [6]: 58 nM
EC50 [8]: 3.01 nM
infectivity % under 10 ug/mL VHH treatment [2]: 25.5%
Pseudovirus inhibition IC50 [Cont. 2] [9]: 74.7 nM

B5: PP821 MBP-R5A-D6-H6 (VHH)
VHH: QVQLVESGGGLVQPGGSLRLSCAASGNDWYINSAHWYRQAPGKEREFVASVSRGGSNNYRDSVKGRFTISRDNAKNTVYLQMNSLKPEDTAVYYCAALLETSSGDYTYWGQGTQVTVSS
notes: Form: Monomer
Kd [10]: 100 nM
infectivity % under 10 ug/mL VHH treatment [2]: 76.7%

B6: PP831 MBP-R5C-F3-H6 (VHH)
VHH: QVQLVESGGGLVQPGGSLRLSCAASGTIPSINYTAWYRQAPGKQRELVASLTSGDNRYYTDSVKGRFTISRDNAKNTVYLQMNSLKPEDTAVYYCNAKTVGSSYRDSYNYWGQGTQVTVSS
notes: Form: Monomer
Kd [11]: ~5370 nM
infectivity % under 10 ug/mL VHH treatment [2]: 81.2%
IC50 [12]: 151 nM

B7: PP833 MBP-R5C-F6-H6 (VHH)
VHH: QVQLVESGGGLVQPGGSLRLSCAASGQTNSILAMHWYRQAPGKQREAVATITSGSNSTYADSVKGRFTISRDNAKNTVYLQMNSLKPEDTAVYYCAARNGKLSPKANQRLYWGQGTQVTVSS
notes: Form: Monomer
Kd [13]: 100 nM
infectivity % under 10 ug/mL VHH treatment [2]: 86.2%

B8: PP935 MBP-5HVZ-S3b-E11-H6 (VHH)
VHH: QVQLVESGGGLVQPGGSLRLSCAASGDIYSQSAMAWYRQAPGKEREFVAAITTTGSRSYKDSVKGRFTISRDNAKNTVYLQMNSLKPEDTAVYYCAAFAVRSSSVSDAYDYWGQGTQVTVSS
notes: Form: Dimer
Pseudovirus inhibition IC50 [Cont. 8] [14]: 68.4 nM
Pseudovirus neutralization IC50 [3]: 34.2 nM
EC50 [5]: 167 nM
EC50 [6]: 343 nM
EC50 [7]: 151 nM
EC50 [8]: 0.47 nM
infectivity % under 10 ug/mL VHH treatment [2]: 48.9%

B9: PP834 MBP-R5C-G2-H6 (VHH)
VHH: QVQLVESGGGLVQPGGSLRLSCAASGSATSINRMAWVRQAPGKEREWVAVIDSGGYTYYADSVKGRFTISRDNAKNTVYLQMNSLKPEDTAVYYCNAVPVTTDKTPMYQYWGQGTQVTVSS
notes: Form: Monomer
Kd [11]: ~2120 nM
infectivity % under 10 ug/mL VHH treatment [2]: 89.2%
IC50 [12]: 184 nM

B10: PP1097 MBP-5HVZ-PAPA-RN-5-H6 (VHH)
VHH: QVQLVESGGGLVQPGGSLRLSCAASGSSFRILAMHWYRQAPGKNREWVAVITSNGNTYYADSVKGRFTISRDNAKNTVYLQMNSLKPEDTAVYYCNADTLDLDDGATYNYWGQGTQVTVSS
Pseudovirus inhibition IC50 [Cont. 8] [14]: 54.5 nM
Pseudovirus neutralization IC50 [3]: 27.3 nM
EC50 [5]: 58.6 nM
EC50 [6]: 95.4 nM
EC50 [7]: 244 nM
EC50 [8]: 0.3 nM
infectivity % under 10 ug/mL VHH treatment [2]: 18.6%

B11: PP1100 MBP-5HVZ-PAPA-RN-14-H6 (VHH)
VHH: QVQLVESGGGLVQPGGSLRLSCAASGENFSGNLVHWFRQAPGKAREGVATVTSTGSGYYADSVKGRFTISRDNAKNTVYLQMNSLKPEDTAVYYCAAKHQKGEIPYYDWGQGTQVTVSS
notes: Form: Dimer
Pseudovirus inhibition IC50 [Cont. 8] [14]: 13.9 nM
Pseudovirus neutralization IC50 [3]: 6.95 nM
EC50 [7]: 46.5 nM
EC50 [8]: 0.35 nM
infectivity % under 10 ug/mL VHH treatment [2]: 17.2%

B12: PP836 MBP-R5D-A1-H6 (VHH)
VHH: QVQLVESGGGLVQPGGSLRLSCAASGSISSYNAMHWFRQAPGKQREWVAGLTSSGSDGYVDSVKGRFTISRDNAKNTVYLQMNSLKPEDTAVYYCNAFSYHTYSRYDFWGQGTQVTVSS
notes: Form: Monomer
Kd [13]: 527 nM
infectivity % under 10 ug/mL VHH treatment [2]: 55%
IC50 [12]: 6.2 nM

B13: PP837 MBP-R5D-B2-H6 (VHH)
VHH: QVQLVESGGGLVQPGGSLRLSCAASGSIWSIAFMSWYRQAPGKGREWVAAITTGNDEAYADSVKGRFTISRDNAKNTVYLQMNSLKPEDTAVYYCAANTYERTPDGRTFSYWGQGTQVTVSS
notes: Form: Monomer
Kd [11]: ~2350 nM
infectivity % under 10 ug/mL VHH treatment [2]: 77.6%
IC50 [12]: 3.7 nM

B14: PP810 MBP-R2D-A6-H6 (VHH)
VHH: QVQLVESGGGLVQPGGSLRLSCAASGSGASIGAMHWFRQAPGKGREWVASITSAGNTYYGDSVKGRFTISRDNAKNTVYLQMNSLKPEDTAVYYCNALAGANYESQWEEYNYWGQGTQVTVSS
notes: Form: Monomer
IC50 [15]: 0.1 nM
infectivity % under 10 ug/mL VHH treatment [2]: 77.5%
Kd [16]: ~4.6 µM

B15: PP811 MBP-R2D-D3-H6 (VHH)
VHH: QVQLVESGGGLVQPGGSLRLSCAASGHIFSINNAAWVRQAPGKSREGVATIHSGGGTYYSDSVKGRFTISRDNAKNTVYLQMNSLKPEDTAVYYCNAEVSTGAGSRGRVSDVYWGQGTQVTVSS
notes: Form: Monomer
infectivity % under 10 ug/mL VHH treatment [2]: 75.9%
Kd [16]: ~27 µM

B16: PP814 MBP-R2E-F4-H6 (VHH)
VHH: QVQLVESGGGLVQPGGSLRLSCAASGETFSSNAMHWFRQAPGKGREFVAAITSGGNDNYSDSVKGRFTISRDNAKNTVYLQMNSLKPEDTAVYYCNAPATEDTSHYPRNYWGQGTQVTVSS
notes: Form: Monomer
Kd [1]: ~1600 nM
infectivity % under 10 ug/mL VHH treatment [2]: 84.7%

B17: MBP-5HVZ-R5B-G1-H6 (VHH)
VHH: QVQLVESGGGLVQPGGSLRLSCAASGSIGQIVLVHWFRQAPGKQRELVAGITSPSSTYYADSVKGRFTISRDNAKNTVYLQMNSLKPEDTAVYYCNTELEGKTQGFTGKTVWYDYWGQGTQVTVSS
Pseudovirus inhibition IC50 [Cont. 3] [17]: 5.82 nM

B18: dimeric VHH (VHH-5HVZ-MBP) R2C-F6 (VHH)
VHH: QVQLVESGGGLVQPGGSLRLSCAASGRILAANIVHWYRQAPGKEREGVAGITTGGSNYYSDSVKGRFTISRDNAKNTVYLQMNSLKPEDTAVYYCNALGLGSASGSYESWGQGTQVTVSS
Pseudovirus inhibition IC50 [Cont. 1] [18]: 92.4 nM
IC50 [15]: 6.5 nM
Kd [16]: ~0.00096 µM

B19: MBP-5HVZ-R5C-G2-H6 (VHH)
VHH: QVQLVESGGGLVQPGGSLRLSCAASGSATSINRMAWVRQAPGKEREWVAVIDSGGYTYYADSVKGRFTISRDNAKNTVYLQMNSLKPEDTAVYYCNAVPVTTDKTPMYQYWGQGTQVTVSS
notes: dimer
Kd [13]: 29.6 nM
IC50 [12]: 121 nM
